Key:
[1] = molecular target: T1, recombinant human SLPI (Secretory leukocyte protease inhibitor), R&D Systems Cat#260-PI (human, UniProt P03973 25-131, biotinylated in the streptavidin-plate ELISAs and on SRBCs); experiment: ELISA, B cell supernatant on biotinylated SLPI, rescreen
T1 construct: Bought protein; also called biotinylated SLPI; B-Cur12

[2] = molecular target: T1, recombinant human SLPI (Secretory …); experiment: limiting antigen ELISA, biotinylated SLPI coated at 50 ng/ml
Method: (§1) The limiting antigen analysis is a method that affinity ranks the antigen-specific antibodies in B cell culture supernatants. […] Each plate was washed 5 times with dH₂O, before 46 μl/well of 1% milk in PBS with 0.05% sodium azide was added, followed by 4 μl/well of B cell supernatant. After 22 hours at RT on a shaker, the plates were again washed 5 times with dH₂O. Goat anti-Human (Fc)-HRP at 1 μg/ml, 50 μl/well was added. After 1 hour at RT, the plates were again washed 5 times with dH₂O and 50 μl/well of TMB substrate was added. The reaction was stopped by the addition of 50 μl of 1M phosphoric acid to each well and the plates were read at wavelength 450 nm. 42C1, 43H7, 35F1 and 9G12 were chosen for further evaluation and cloning.

[3] = molecular target: T1, recombinant human SLPI (Secretory …); experiment: limiting antigen ELISA, biotinylated SLPI coated at 200 ng/ml
Method: as §1

[4] = molecular target: T1, recombinant human SLPI (Secretory …); experiment: limiting antigen ELISA, biotinylated SLPI coated at 400 ng/ml
Method: as §1

[5] = molecular target: T1, recombinant human SLPI (Secretory …); experiment: limiting antigen ELISA, biotinylated SLPI coated at 800 ng/ml
Method: as §1

[6] = molecular target: T1, recombinant human SLPI (Secretory …); experiment: ELISA, B cell supernatant on biotinylated SLPI, primary screen
Method: Anti-SLPI antibody titers were determined by indirect ELISA. Briefly, biotinylated SLPI (0.5 μg/mL) was coated onto Sigma Streptavidin Clear Polystyrene 96 well ELISA plates for 30 minutes at room temperature (RT). The plates were then washed 4× by hand, then pat dried on paper towels. XenoMouse® animal sera from SLPI immunized, or naïve XenoMouse® animals, were titrated out to 6 wells, the last well left blank, in 1% no fat skim milk/PBS at 1:2 dilutions in duplicate from a 1:500 initial dilution. 50 μl was used for each well. The plates were incubated for 1 hour then washed four times. 50 μl of a goat anti-human IgG Fc-specific HRP-conjugated antibody (0.4 μg/mL) was added to each well and incubated for 1 hour at RT. The plates were washed five times with distilled water (dH₂O). The plates were developed with the addition of TMB for 30 minutes and the ELISA was stopped by the addition of 1 M phosphoric acid. The specific titers of individual XenoMouse® animals were determined from the optical density at 450 nm, Table 2. The titers represent the reciprocal dilution of the serum to either SLPI or streptavidin and therefore the higher the number, the greater the humoral immune response. Lymph nodes were harvested for XenoMax® antibody generation from immunized XenoMouse® animals with specific titers to SLPI versus streptavidin as shown in Table 4.
B cells from the harvested animals were cultured and those secreting SLPI-specific antibodies were isolated as described previously (Babcook et al., 1996 Proc. Natl. Acad. Sci. USA, 93:7843-7848). ELISA, performed as described above, was used to identify primary SLPI-specific wells from fifty plates cultured at 500 or 150 cells/well.

[7] = molecular target: T1, recombinant human SLPI (Secretory …); experiment: ELISA, SLPI (60 ng/ml) + supernatant on plate-bound chymotrypsin
Method: Antibodies were screened for ability to inhibit SLPI activity. The assay involves assessing SLPI binding to chymotrypsin and resultant inhibition of chymotrypsin enzyme activity in the presence or absence of antibody. Biotinylated bovine chymotrypsin (5 μg/ml) was incubated with streptavidin coated plates for 30 minutes at RT. Each plate was washed 5 times with dH₂O prior to addition of an anti-SLPI antibody mixture (30 μl of SLPI reconstituted in 100 mM Tris, 10 mM CaCl₂ and 0.1% HSA pH 7.5 mixed with 20 μl of monoclonal antibody supernatant being tested; final concentration SLPI 60 ng/ml; incubated for 1 hour at RT) and plates were incubated for 1 hour. Plates were washed 5 times with dH₂O then incubated with 50 μl of a polyclonal Goat anti-SLPI (purchased from R&D) at 1 μg/ml/well for 1 hour. After washing, 50 μl of a rabbit anti-goat HRP-conjugated antibody/well was added and incubated for 1 hour. After washing, 50 μl of TMB substrate/well was added.. The reaction was stopped by adding of 50 μl of 1M phosphoric acid/well. Plates were read at wavelength 450 nm.

[8] = molecular target: T1, recombinant human SLPI (Secretory …); experiment: BIAcore 2000, 25 C, antibody captured on goat anti-human surface, SLPI injected
Method: BiaCore® analysis was used to determine binding affinity of anti-SLPI antibody to SLPI antigen. The analysis was performed at 25° C. using a BiaCore® 2000 biosensor equipped with a research-grade CM5 sensor chip. A high-density goat α human antibody surface over a CM5 BiaCore® chip was prepared using routine amine coupling. Antibody supernatents were diluted to ˜5 μg/mL in HBS-P running buffer containing 100 μg/mL BSA and 10 mg/mL carboxymethyldextran. The antibodies were then captured individually on a separate surface using a 2 minute contact time, and a 5 minute wash for stabilization of antibody baseline.
SLPI antigen was injected over each surface for 75 seconds, followed by a 3-minute dissociation. Double-referenced binding data were obtained by subtracting the signal from a control flow cell and subtracting the baseline drift of a buffer inject just prior to the SLPI injection. SLPI binding data for each mAb were normalized for the amount of mAb captured on each surface. The normalized, drift-corrected responses were also measured.

T1 sequence (P03973 25-131): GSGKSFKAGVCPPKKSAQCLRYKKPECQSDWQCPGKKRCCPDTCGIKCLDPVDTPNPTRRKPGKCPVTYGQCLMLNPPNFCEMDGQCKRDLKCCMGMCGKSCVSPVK

Binder | 2* OD [1] [OD450] | OD [2] [OD450] | OD [3] [OD450] | OD [4] [OD450] | OD [5] [OD450] | 1* OD [6] [OD450] | % Max [7] [%] | O.D. [7] [OD450] | Kd [8] [nM]
35F1 (antibody, human IgG2, V domains shown, Fully human, XenoMouse XMG2; also called #50; Cur12.1 PL35 F1) VH: QVQLQESGPGLVKPSQTLSLTCTVSGGSIKSGDYYWSWVRQLPGKGLEWIGYIYYSGSTYYNPSLKSRVTISIDTSKNQFSLKLSSVTAADTAVYYCAREGSYYDSGGFDYWGQGTLVTVSS VL: not shown | 0.41 | 0.17 | 0.24 | 0.3 | 0.37 | 0.425 | 47 | 0.35 | 0.14
42C1 (antibody, human IgG2, V domains shown, Fully human, XenoMouse XMG2; also called #24; Cur12.1 PL42 C1) VH: QVQLQESGPGLVKPSQTLSLTCTVSGVSISSGGYYWSWIRQHPGKGLEWIGYIYYSGSTYYNPSLKSRVTISVDTSKNQFSLKLSSVTAADTAVFYCAREGEYYDEGGFDYWGQGTLVTVSS VL: not shown | 2.25 | 3.01 | 3.69 | 3.58 | 3.85 | 3.23 | 103 | 0.762 | 0.116
43H7 (antibody, human IgG2, V domains shown, Fully human, XenoMouse XMG2; also called #11; Cur12.1 PL43 H7) VH: QVQLVESGGGVVQPGRSLRLSCAASGFTFSTYGMHWVRQAPGKGLEWVTFIWYDGRNKYYADSVKGRFTVSRDNSKNTLYLQMNSLRAEDTAVYYCARGDDYGDYHPHYYYYGLDVWGQGTTVTVSS VL: DIVMTQTPLSLSVTPGQPASISCKSSQSLLDSDGKTYLYWYLQKPGQPPQLLIYEVSNRFSGVPDRFSGSGSGTDFTLKISRVEAEDVAYYYCMQSIQLPWTFGQGTKVEIK | 2.28 | 1.19 | 3.52 | 4.02 | 4.1 | 3.37 | 90 | 0.666 | 0.104
9G12 (antibody, human IgG2, V domains shown, Fully human, XenoMouse XMG2; also called #36; Cur12.1 PL09 G12) VH: QVQLVESGGGVVQPGRSLRLSCAASGFTFSGYGMHWVRQAPGKGLEWVAFIWYNGNDNYYTDSVKGRFTISRDNSKNTLYLQMNSLRAEDTAVYYCARGDDYGDYHPHYYYYGMDVWGQGTTVTVSS VL: DIVMTQTPLSLSVTPGQPASISCKSSQSLLDSDGKTYLYWYLQKPGQPPQLLIYEVSNRFSGVPDRFSGSGSGTDFTLKISRVEAEDIGVYYCLQSIQLPWTFGQGTKVEIK | 1.97 | 0.6 | 1.36 | 2.19 | 2.25 | 2 | 61 | 0.452 | 0.053
